Test results taken from PMC3912200, “Structural and Functional Characterization of Cargo-Binding Sites on the μ4-Subunit of Adaptor Protein Complex 4” (PLoS ONE, 2014).
Changes are numbered by the printed parent chain. Names and notes keep the numbering of the source.

B1: L261K: μ4 mutant, μ4-binding site, Y2H construct (protein)
chain: MISQFFILSSKGDPLIYKDFRGDSGGRDVAELFYRKLTGLPGDESPVVMHHHGRHFIHIRHSGLYLVVTTSENVSPFSLLELLSRLATLLGDYCGSLGEGTISRNVALVYELLDEVLDYGYVQTTSTEMLRNFIQTEAVVSKPFSLFDLSSVGLFGAETQQSKVAPSSAASRPVLSSRSDQSQKNEVFLDVVERLSVLIASNGSLLKVDVQGEIRLKSFLPSGSEMRIGLTEEFCVGKSELRGYGPGIRVDEVSFHSSVNKDEFESHRILRLQPPQGELTVMRYQLSDDLPSPLPFRLFPSVQWDRGSGRLQVYLKLRCDLLSKSQALNVRLHLPLPRGVVSLSQELSSPEQKAELAEGALRWDLPRVQGGSQLSGLFQMDVPGPPGPPSHGLSTSASPLGLGPASLSFELPRHTCSGLQVRFLRLAFRPCGNANPHKWVRHLSHSDAYVIRI
modifications: left off: Gal4 activation domain, end not stated, kept
B2: E265R: μ4 mutant, μ4-binding site, Y2H construct (protein)
chain: B1 chain with K261L, E265R
modifications: left off: Gal4 activation domain, end not stated, kept
B3: F264A: μ4 mutant, μ4-binding site, Y2H construct (protein)
chain: B1 chain with K261L, F264A
modifications: left off: Gal4 activation domain, end not stated, kept

tested on: cytosolic tail of APP; test: Yeast two-hybrid (Y2H) analysis of μ4 with the APP tail; assay type: binding; conditions: mutations at μ4-binding site; growth on -His plates, 30°C
Excerpt: The cloning of the tail of APP (residues 649–695), full-length human μ4, and all the other yeast two-hybrid (Y2H) constructs, and the cloning of the C-terminal domain of μ4 for expression in E. coli was described previously. To generate a construct for mammalian expression, full-length human μ4 was obtained by PCR amplification and cloned into the EcoRI and SalI sites of pEGFP-N1 (BD BiosciencesClontech, Mountain View, CA) including a stop-codon before the GFP coding sequence. The cloning of APP-GFP carrying the double mutation F615P/D664A was described previously. Single amino acid substitutions were introduced using the QuikChange mutagenesis kit (Stratagene, La Jolla, CA). Y2H assays were performed as previously described. A set of pCI-neo (Promega) constructs encoding hemagglutinin (HA)-epitope tagged wild-type or mutants of human μ4 was a generous gift of J. Bonifacino and R. Mattera (Cell Biology and Metabolism Program, NICHD, NIH). The nucleotide sequences of all recombinant constructs were confirmed by dideoxy sequencing.
Figure 1 Yeast two-hybrid analysis of the interaction of μ4 with the cytosolic tail of APP. (A) Superposition of the surface and ribbon representations of human wild-type μ4 C-terminal domain (pdb entry 3L81). The insets show an enlargement of the μ4-binding site and the putative μ2-binding site with residues chosen for the yeast two-hybrid (Y2H) analysis. The APP peptide (TYKFFEQ; stick model) bound to the μ4-binding site is in yellow, and the EGFR peptide (FYRALM; stick model; pdb entry 1BW8) superposed to the putative μ2-binding site is in magenta. (B) Sequence alignment of the C-terminal domain of the μ subunits of known crystal structure depicting critical residues at the corresponding μ2- and μ4-binding sites. Disordered loops are in yellow letters, and arrows and cylinders represent β-strands and α-helices, respectively. M.m., Mus musculus; R.n., Rattus norvegicus; H.s., Homo sapiens. (C) and (D) Yeast were co-transformed with plasmids encoding Gal4bd fused to the cytosolic tail of the amyloid precursor protein (APP) indicated on the left, and Gal4ad fused to wild-type or mutant μ4 constructs indicated on top of each panel. (C) Y2H analysis of μ4 with mutations on the YKFFE binding site (μ4-binding site). (D) Y2H analysis of μ4 with mutations on a putative YXXØ binding site (μ2-binding site). Mouse p53 fused to Gal4bd and SV40 large T antigen (T Ag) fused to Gal4ad were used as controls. Co-transformed cells were spotted onto His-deficient (-His) or His-containing (+His) plates and incubated at 30°C. Growth is indicative of interactions. Some mutations on either of the two sites affect the interaction of μ4 with the cytosolic tail of APP.

Question: For B1, which “effect of mutation on binding to the APP YKFFE signal (Y2H)” value (“effect of mutation on binding” for short) is on record?
Answer: Its value is “completely abolished”.

Question: B2 was tested. Which “effect of mutation on binding” value did it give?
Answer: Its value is “completely abolished”.

Question: With B3 as the molecule, how does the “effect of mutation on binding” value read?
Answer: The value was “drastically reduced”.
